Here are results for 2 substances from paper PMC2114792.

In experiment [1] the target is mouse hexabrachion (mouse (endogenous in 3T3 cells)) (UniProt Q80YX1). Kind of experiment: rotary shadowing electron microscopy.
Experiment [2] concerns the target rat hexabrachion (rat (endogenous in normal rat kidney cells)). Briefly: rotary shadowing electron microscopy.

In turn, mouse hexabrachion, Q80YX1 23-2110 gave a stoichiometry N in experiment [1] of 6. Substance rat hexabrachion yielded a stoichiometry N in experiment [2] of 6.
